Laboratory results as given in PMC5156300 (mBio, 2016).

B1: αNP-VHH1-HA (VHH)
VHH: QVQLQESGGGLVQAGGSLRLTCALSERTSTSYAQGWFRQPPGKEREFVASLRTHDGNTHYTDSVKGRFTISRDNAENTLYLQMNSLKTEDTAVYYCAASLGYSGAYASGYDYWGQGTQVTVSS
notes: also called anti-NP-VHH1-HA; HA-tagged anti-NP-VHH1; source: 293T, transfected (pCAGGS), in lysate
B2: αNP-VHH1-Alexa Fluor 647 (VHH)
VHH: B1 VHH

Experiments:
[1] = target: NP-Renilla wild type (NP of influenza virus A/WSN/33) (Influenza A virus A/WSN/33, UniProt P15682); assay: LUMIER; details: partners not purified
[2] = target: NP of influenza virus A/PR/8/34 in infected A549 cells (Influenza A virus A/PR/8/34, UniProt P03466); assay: flow cytometry on cells; details: one partner purified
[3] = target: NP of influenza virus A/WSN/33 in infected A549 cells (Influenza A virus A/WSN/33, UniProt P15682); assay: flow cytometry on cells; details: one partner purified
Sequence of NP of influenza virus A/WSN/33 in infected A549 cells (P15682 whole entry): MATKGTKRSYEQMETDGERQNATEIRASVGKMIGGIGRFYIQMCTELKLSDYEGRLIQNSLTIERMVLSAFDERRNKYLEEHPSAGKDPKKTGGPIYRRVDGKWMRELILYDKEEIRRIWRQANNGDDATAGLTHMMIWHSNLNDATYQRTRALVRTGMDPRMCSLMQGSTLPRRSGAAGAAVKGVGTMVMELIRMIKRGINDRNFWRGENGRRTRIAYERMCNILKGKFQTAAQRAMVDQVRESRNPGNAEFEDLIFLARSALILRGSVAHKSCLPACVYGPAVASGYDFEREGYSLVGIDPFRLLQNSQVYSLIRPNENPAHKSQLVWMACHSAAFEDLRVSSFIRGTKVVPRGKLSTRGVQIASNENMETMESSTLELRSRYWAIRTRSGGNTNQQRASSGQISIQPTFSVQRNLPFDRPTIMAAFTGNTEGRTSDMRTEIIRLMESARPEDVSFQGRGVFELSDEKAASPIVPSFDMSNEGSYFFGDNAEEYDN

Sequence of NP-Renilla wild type (NP of influenza virus A/WSN/33) (P15682 whole entry): as above
Sequence of NP of influenza virus A/PR/8/34 in infected A549 cells (P03466 whole entry): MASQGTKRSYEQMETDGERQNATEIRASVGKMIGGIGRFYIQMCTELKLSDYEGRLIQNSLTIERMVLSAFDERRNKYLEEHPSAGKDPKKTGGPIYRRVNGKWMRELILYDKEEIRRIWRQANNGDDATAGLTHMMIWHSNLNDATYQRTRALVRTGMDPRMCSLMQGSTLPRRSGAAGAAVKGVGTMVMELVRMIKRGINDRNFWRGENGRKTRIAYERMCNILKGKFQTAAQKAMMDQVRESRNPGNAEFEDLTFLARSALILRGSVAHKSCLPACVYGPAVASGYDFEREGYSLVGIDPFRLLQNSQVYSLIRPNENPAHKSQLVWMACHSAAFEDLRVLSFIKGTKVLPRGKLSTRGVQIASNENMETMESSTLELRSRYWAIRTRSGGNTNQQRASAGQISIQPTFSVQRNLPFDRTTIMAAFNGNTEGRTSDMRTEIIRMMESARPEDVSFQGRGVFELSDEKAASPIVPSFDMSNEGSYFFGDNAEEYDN

| Binder | binding result [1] | binding result [2] | binding result [3] |
| --- | --- | --- | --- |
| B1 | binds |  |  |
| B2 |  | binds | binds |
